# Source: PMC9817231
# Read-outs that look alike come from different tables or passages of the source.
# B1: SL1-4 (structured_RNA)
# RNA: GGUUUAUACCUUCCCAGGUAACAAACCAACCAACUUUCGAUCUCUUGUAGAUCUGUUCUCUAAACGAACUUUAAAAUCUGUGUGGCUGUCACUCGGCUGCAUGCUUAGUGCACUCACGC
# B2: SL1 (structured_RNA)
# RNA: GGGUUUAUACCUUCCCAGGUAACAAACCC
# What was measured:
# [1] = target: T1, FL-Nsp1 (non-structural protein 1) (SARS-CoV-2, UniProt P0DTD1 1-180); assay: NMR
# [2] = target: T1, FL-Nsp1 (non-structural protein 1); assay: NMR; remark: listed apart in the source
Binder,binding result [1],binding result [2]
B1,no binding,–
B2,–,no binding
